The record followed here is article PMC5399293, “Hierarchical assembly of centriole subdistal appendages via centrosome binding proteins CCDC120 and CCDC68” (Nature Communications, 2017).

In the assay the target is T1, MBP-hNinein-N (1–480 aa) (human, UniProt Q8N4C6 1-480).
T1 construct: human Ninein residues 1-480; also called purified 1–480 aa of hNinein
T1 sequence (looked up): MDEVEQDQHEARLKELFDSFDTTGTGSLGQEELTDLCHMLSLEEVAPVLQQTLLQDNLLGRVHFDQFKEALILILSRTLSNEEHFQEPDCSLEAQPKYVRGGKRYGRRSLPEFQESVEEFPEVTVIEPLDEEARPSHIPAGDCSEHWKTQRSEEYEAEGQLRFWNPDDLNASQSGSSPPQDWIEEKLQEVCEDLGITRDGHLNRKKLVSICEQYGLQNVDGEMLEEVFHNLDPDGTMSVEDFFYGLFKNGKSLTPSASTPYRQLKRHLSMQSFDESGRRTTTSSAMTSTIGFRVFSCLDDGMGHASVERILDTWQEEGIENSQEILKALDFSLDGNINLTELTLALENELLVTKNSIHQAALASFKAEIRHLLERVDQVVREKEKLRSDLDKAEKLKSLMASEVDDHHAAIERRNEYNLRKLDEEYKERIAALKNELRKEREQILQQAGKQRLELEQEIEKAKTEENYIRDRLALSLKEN
Nature of the assay: pull-down; in vitro binding: purified GST-CCDC120 (1–320 aa) incubated with amylose resin beads coated with MBP fusions, 4 °C; immunoblot with anti-GST. Conditions: both partners purified. In general terms: Immunoblotting shows a protein as a band on a membrane.

B1: GST-tagged CCDC120 (1–320 aa) (domain or fragment, human, UniProt Q96HB5-1 1-320, looked up)
chain: MEVKGQLISSPTFNAPAALFGEAAPQVKSERLRGLLDRQRTLQEALSLKLQELRKVCLQEAELTGQLPPECPLEPGERPQLVRRRPPTARAYPPPHPNQAHHSLCPAEELALEALEREVSVQQQIAAAARRLALAPDLSTEQRRRRRQVQADALRRLHELEEQLRDVRARLGLPVLPLPQPLPLSTGSVITTQGVCLGMRLAQLSQEDVVLHSESSSLSESGASHDNEEPHGCFSLAERPSPPKAWDQLRAVSGGSPERRTPWKPPPSDLYGDLKSRRNSVASPTSPTRSLPRSASSFEGRSVPATPVLTRGAGPQLCKP
notes: human CCDC120 (NM_001271836.1) residues 1-320; also called GST-CCDC120 (1–320 aa); 1–320 aa of CCDC120
Turning to B1, the binding result was “binds”.
